Laboratory results: the DeepSol protein solubility set

Assay: soluble on expression in E. coli; label from the status in PepcDB or PDB records
With “MELEDANVTKKVELRPLIGLTRGLPPTDLETITIDAIRTHRRLVEKADELFQALPETYKTGQACGGPQHIRYIEASIEMHAQMSALNTLYSILGFIPKVVVN” the “soluble on expression in E. coli” value was “soluble”.
In the case of “MVIEVPQTERVNDVDVFLSTQDGQIQRPKGPNCRHPVRQKCTNCLPVDPFDEEYLKEKDIKHMSFHAHVRKLLGSQGKGTTLKKPLENFRCSLKPNCDAHKPFPKGICTKCKPQVVTLNRQKFRHVDNIQIENQELVNQFLDYWRLSGHQRVGFLIGQYQPHLEVPLGIKATVAAIYEPPQHCREDGIEFLEDKNQKTIDNLLEMLGLQRVGWIFTDCWTANSAEGTVHYTRHKDSFFLSAEECITAAMLQNQHPNITEYSMDRHYGSKFVTVVASGDESMHVNFHGYQVSNQCAAMVEADILCPTLYTPELAYVRETPLSEEHYITDVQFSMKNEYGAEVMKNGRPLPVEYLLVDVPAGMPKEPHYTFHVGTSNKSKSAKFNVENRQAIGQLQGGANLIQYSSEFSTNQFLEQATNFHFLLYLVTNDQVQISDEWMKRLCDAVKAQDRGTAMEWAQECEDWHQLMALAHANGGSGNDDIPVIPNGDPFSGSSSGGSRGAVWSCGHCTFQNEAGRQDCSMCGLPAAD”, the “soluble on expression in E. coli” value was “not soluble”.
With “MGSDKIHHHHHHMKKTERINDMLIFLNNKRYFNLKDLMVRYDISKSTALRDIQSLEEIGVPIYSELGRNGSYKIIENSVLSPIYFSVDEMYALYFSILTLNGYKTKPFNIESIALENKFKHVLPDNVRKNIAIMERTLSFEVTNHSNFSPFLKEILQGIFAERVYHLTYLKKDVEKALIAQFIRIESKFGQWYAKIFNFETNNVQIIRCDKILSIVETSNTKPKNLEELLNYLATFHRKPDAIDFIVIVNQRGKDIFDKENYPSMRIQKENEHYIITGYFNKQEVDLSRTIF” the “soluble on expression in E. coli” value was “not soluble”.
In the case of “MGSDKIHHHHHHMHQYTNIKKAIQLSNSFWDVTTAAGMANIATRNLGNGRHEAVASGRQFTNMSSYSYLGLDSHPAILRAAADAVMNTGSLNTSISRIRVQFDILQQAEEALASLVDAETLTVPSCAAAAAATLPLLASGALTGDVAPLMVFDKNAHFCLNMMKPICADETEIQTIRHNDLNALEDLCKTHQRVAYVADGVYSTGGMAPVKELLALQDKYGLFLFFDEAHGLSTLGHLGRGLVLEEMGAINDRTLIVTSLNKGFGASGGAIFLGPRGDAERRKLATRFGGPVTWSQRINTAGLGAIIESVAVHKSAELPALQQKLQDNIRLFDQHVASENSGDRLPIRFVSIGSEERTILYAKSLLEDGYYTSPIFFPVIAKGRAGLRIMIRANMTTEEIERFGACLKQLRASHE”, the “soluble on expression in E. coli” value was “not soluble”.
With “MSQRTSEENRYEQLHRFAAKIHSTMQIDDVLEEIICTLQNVYPAFTYHLLLSHDNHVCGNLPIKTLALDESEGQPAALRAFLTGQVQCEETAAPPRSVLYAPIKGVQAVYGVIQIIAPYAAPFPKREINFISLLAGTAGRALENAKLYEQSRRLEHHHHHH” the “soluble on expression in E. coli” value was “soluble”.
With “MERKISDEECPVRKSMQIFAGKWTLLIIFQINRRIIRYGELKRAIPGISEKMLIDELKFLCGKGLIKKKQYPEVPPRVEYSLTPLGEKVLPIIDEIAKFGMENL” the “soluble on expression in E. coli” value was “soluble”.
With “MKSFCDNDDNNHSNTTNLLGFSLSSNMMKMGGRGGREAIYSSSTSSAATSSSSVPPQLVVGDNTSNFGVCYGSNPNGGIYSHMSVMPLRSDGSLCLMEALNRSSHSNHHQDSSPKVEDFFGTHHNNTSHKEAMDLSLDSLFYNTTHEPNTTTNFQEFFSFPQTRNHEEETRNYGNDPSLTHGGSFNVGVYGEFQQSLSLSMSPGSQSSCITGSHHHQQNQNQNHQSQNHQQISEALVETSVGFETTTMAAAKKKRGQEDVVVVGQKQIVHRKSIDTFGQRTSQYRGVTRHRWTGRYEAHLWDNSFKKEGHSRKGRQVYLGGYDMEEKAARAYDLAALKYWGPSTHTNFSAENYQKEIEDMKNMTRQEYVAHLRRKSSGFSRGASIYRGVTRHHQHGRWQARIGRVAGNKDLYLGTFGTQEEAAEAYDVAAIKFRGTNAVTNFDITRYDVDRIMSSNTLLSGELARRNNNSIVVRNTEDQTALNAVVEGGSNKEVSTPERLLSFPAIFALPQVNQKMFGSNMGGNMSPWTSNPNAELKTVALTLPQMPVFAAWADS” the “soluble on expression in E. coli” value was “soluble”.
For “MPVAIVTGASSGIGRAAALLLARNNYKLSLTGRNVAALNELAGQIVSAGSDKNDVLVTAVELASEEAPKTIVDATVQKFGRIDTLINSAGILRAGPVLDSGIEVYDELMNVNVRSLIRLTRAALPHIITTKGTVVNVSSINGPCPFPNVTYYCMSKSAVDQFTKCLALEMAPNGVRVNAVCPGVTVTNLHRTSGQDETTYSAFLERSKTTHALGRPGDANEVAEAIYFLASEKSSFTTGELLRVDGGRGIMHPR”, the “soluble on expression in E. coli” value was “soluble”.
For “GVVNVVVPQYVNCPDVCHWESAIMIYLMGELVERGLQDKVVFVTIGVNPYYETIEDGKRYMESVAGDYLDKGVKWIWVLDDVEKQEELWNMFGIAVSLYCVKNDGSIIDELTYDDYLKLEESGECSFVGVNHTAGFIIVDGDGVFRYFMSPTEDGWKRGQRQVAETILQYILKLVEERK”, the “soluble on expression in E. coli” value was “not soluble”.
In the case of “MDIPQTKQDLELPKLAGTWHSMAMATNNISLMATLKAPLRVHITSLLPTPEDNLEIVLHRWENNSCVEKKVLGEKTENPKKFKINYTVANEATLLDTDYDNFLFLCLQDTTTPIQSMMCQYLARVLVEDDEIMQGFIRAFRPLPRHLWYLLDLKQMEEPCRF”, the “soluble on expression in E. coli” value was “soluble”.
With “MSLDTMIASLEQSKKRAEEELSETESIRKEAEKLHKELQQQIIELNSKKDKMLEEAEQQAAEKVKAAMKEAEDIIHELRTIKEEHKSFKDHELINAKKRLEGAMPAFEKSKKPEKPKTQKRDFKPGDEVKVLTFGQKGTLLEKTGGNEWNVQIGILKMKVKEKDLEFIKSAPEPKKEKMITAVKGKDYHVSLELDLRGERYENALSRVEKYLDDAVLAGYPRVSIIHGKGTGALRKGVQDLLKNHRSVKSSRFGEAGEGGSGVTVVELKEGHHHHHH” the “soluble on expression in E. coli” value was “soluble”.
In the case of “MSLKHLTEMVRQHKAGKTNGIYAVCSAHPLVLEAAIRYASANQTPLLIEATSNQVDQFGGYTGMTPADFRGFVCQLADSLNFPQDALILGGDHLGPNRWQNLPAAQAMANADDLIKSYVAAGFKKIHLDCSMSCQDDPIPLTDDIVAERAARLAKVAEETCLEHFGEADLEYVIGTEVPVPGGAHETLSELAVTTPDAARATLEAHRHAFEKQGLNAIWPRIIALVVQPGVEFDHTNVIDYQPAKASALSQMVENYETLIFEAHSTDYQTPQSLRQLVIDHFAILKVGPALTFALREALFSLAAIEEELVPAKACSGLRQVLEDVMLDRPEYWQSHYHGDGNARRLARGYSYSDRVRYYWPDSQIDDAFAHLVRNLADSPIPLPLISQYLPLQYVKVRSGELQPTPRELIINHIQDILAQYHTACEGQEGHHHHHH”, the “soluble on expression in E. coli” value was “soluble”.
With “MSLNCTLDELRQRIEAHRPRQLDTDQRFPQAAVLVPITRSDDPELVLTLRAAGLSTHGGEVAFPGGRRDPEDADLVRTALREAEEEIALPPGLVEVVGPLSTLVSRHGIEVTPYVAFIPDFVEYQPNDGEIAAVFNVPLSFFRDDPREVTHRIDYFGRSWYVPSYRFGEFKIWGLTAIMVVELVNLLYDDPIDLHTPPASFIKLSEGGSHHHHHH” the “soluble on expression in E. coli” value was “soluble”.
In the case of “MSLQFSVLASGSTGNAFYLETEDHAFLVDAGLSGKAMDGLMAQIGRKLDDVDGIFVTHEHSDHIKGLGVVARKYKLPIYANEKTWKAMENQIGKIDTDQKFVFPMETVKSFGGLDVESFGVSHDAAEPMFYVFHYSGRKLALMTDTGYVSDRMKGIIRSANVFVFESNHDVGMLQMGRYPWSIKRRILSDVGHVSNEDAALAMTDVIGDETSRIYLAHLSQDNNMKELARMSVQQTLASKGFVTGETFDLYDTDPKKATPLWLYNFSMLEHHHHHH”, the “soluble on expression in E. coli” value was “not soluble”.
With “MSLEFIPRSEQRPIVDTSSTTLDLIYFDLVTLASNEQDIRRLPAHESLYVVLSGQVDIEVDGIMFEAVGRRADIWGGDADSVYAPVGANVRISARGAAAEVAIAGGLCDTRYAAFRITPDEVDAVNVGSSDTHSQRRIVHLLGQRQNGRCGNLLVSELYAGEGCWSGYPPHKHDTEDGDVETRHEELYHYRFQPETGFGSQITYDEDGPVKILMTRNGDTVLVDRGYHPTVTSPGHQGYIFTILVGKHRRGLIQRFDPAHQHLTKTIPGEGHHHHHH” the “soluble on expression in E. coli” value was “soluble”.
In the case of “MGSDKIHHHHHHEEPCPENGRVTFTVAQTRATQEGTFEKGNSIGVFAIEPKTGVYWATNNKYTYDGRAFKPATEEDNIIVTVGTDLDFYVYYPFKEGQTDITAISHAIGDQQEKSGWLSADFLTASYTDVIQDYTIPLHFEHRLSTVEVRVEGSDRVDGARMENVKYGSRFNLLTGKTVTDETRGSYAMYRYSSGNLTTVFRMTIPAQTLTTTSNYITLTGTPDMKLRGTSDMTTEPGRIHNYRIDYKIRITVLDYPQGGSTTGAGLYDMGSTCTVTASVNGGYEFAGWYEDGRIVSNDTRYSFEVLSDRTLEPRYRNYGGWSVTLTANPSVIGWQGGRSSLVAGASRGVFVNGVAENTQTAVPSLSGGAEGFLLSGNTVTVSENPSGSSRSCVFTASHGGSSATATITQEGSPVSYYFSYADGGTSHTEYPDDSSAGSFILDITSYKKTGNSTKALSWNASGDSWIHVNGSSVSYDENPAKERRTGLVTLKQDESGKTLSLKIVQPGKTSIDIEQ”, the “soluble on expression in E. coli” value was “not soluble”.
With “MKSTMGIILTGGKNDRLKELAEMRSSTAVPIGGKYRVIDFVLSNMVNSGIKNIGVLTQYSFRSLMDHLGSGKEWDLDRRNEGLFIFPPYLAGEHSGWYQGSADAMYHNITFLKRSYEEYVLVAQGNCVYKMLFDDMLDYHIKKNADITIAYRDMSDFPREELSFMGVMTMDENRRVVDFKEKHKNPESTICSMGIYILKRELLIALLEECNSHGKYDFVKDVIINKLPTLNIYGYKFEGYWRNLNSINAYYRINMEMLNPEIRYQLFEQHGKVYTKVKDEPPAKYNEEAEVRNSIIADGCIIEGTVINSVLFRGVTIKRNAVVKDCIIMQDSVIEEDVDIESLIIDKNVYLSKGIRLKGMVNFPITIGKNAVI” the “soluble on expression in E. coli” value was “not soluble”.
With “MGSDKIHHHHHHMTPSAGLGLKSQHYGDAIACDAEGLWFEVHPENYMSAGGPRLAALEAVRARRPVSLHGVGLSLAADTDPDPEHLQALKRLVDRFDPFVVSEHLAWSTHRGAHHPDLLPFPRTRAALDRICGNVARMQDALQRRVLIENPSLYLPLKGHALDEVDFLEALATRTGCGLLVDVNNVFVSAQNLGYAPETYLDALPAHAIGEIHLAGHAPDPGGSNLLIDTHGAPVAEVVWTLYARLIARIGPRPTLIERDDDIPDFAALMAERNRAVAVLASGQTAREPAHV” the “soluble on expression in E. coli” value was “not soluble”.
With “AIAEEWDVPQMKKEVESLKYQLAFQREMASKTIPELLKWIEDGIPKDPFLNPDLMKNNPWVEKGKCTIL” the “soluble on expression in E. coli” value was “soluble”.
With “MSNSRSILSQPEWRIVDQSSLGPTFHALQSFAMDDTLCTSIGKGESAATMRSWVHHNTIVLGIQDSRLPHLEEGISFLKENNFNVIVRNSGGLAVVLDEGVLNVSLLFQETEKGIDIDLGYDTMWHLIQEMLKDYDVTIEAKEIVGSYCPGSYDLSIRDQKFAGISQRRIRGGVAVQIYLCATGSGSERAALVRDFYNLAIQGEETRFTYPEIVPSTMASLSELLDETITVQDLMMRLLKTLQQFAPKLTPSQLTIDEIPLYETNLQRIIDRNNKALGLEK” the “soluble on expression in E. coli” value was “not soluble”.
For “MLNKLSLLLKDAGISLTDHQKNQLIAYVNMLHKWNKAYNLTSVRDPNEMLVRHILDSIVVAPYLQGERFIDVGTGPGLPGIPLSIVRPEAHFTLLDSLGKRVRFLRQVQHELKLENIEPVQSRVEEFPSEPPFDGVISRAFASLNDMVSWCHHLPGEQGRFYALKGQMPEDEIALLPEEYQVESVVKLQVPALDGERHLVVIKANKILEHHHHHH”, the “soluble on expression in E. coli” value was “not soluble”.
In the case of “MGSDKIHHHHHHSCDGMDATYKEFIEEGPIVYIGKVDSLKAYAGRNRAMLEWQKLLDPRAKTAKIFWENRTRSTELQLTDKAGLTQVIVKDLAEGSYVFEVCTYDTHGNSSIMSEVPCTVYGDVYEKLLFNTKVKTAVLKNDVLTITFAASLEPTFFGSEITYTSIDGGDKTVILKAPETQIKIDDFAGDRIIYRSVYLPEETAIDYFYSESDEFEIK”, the “soluble on expression in E. coli” value was “not soluble”.
